According to publication PMC7979743 (Nature Communications, 2021):

Target: ookinete protein Pfs25 (Plasmodium falciparum NF54 (3D7 entry …, UniProt P13829))
Assay: ELISA; Pfs25 ELISA; series of mAb concentrations, OD 450 nm

Chain of ookinete protein Pfs25 (Plasmodium falciparum NF54 (P13829 17-196): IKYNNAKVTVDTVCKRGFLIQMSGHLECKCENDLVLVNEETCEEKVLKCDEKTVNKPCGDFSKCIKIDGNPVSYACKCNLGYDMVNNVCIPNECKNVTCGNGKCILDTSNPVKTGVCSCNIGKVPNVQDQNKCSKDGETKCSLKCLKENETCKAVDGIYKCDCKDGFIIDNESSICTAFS

Binder | binding result
LMIV230-01 human monoclonal antibody (IgG1, kappa) (antibody, V domains shown) VH: QVQLVQSGAEVKKPGSSVKVSCKVSGGTFNTYAIIWVRQAPGQGLEWMGAIIPFQDRGQYAQKFQGRVTITADKSTSTAYMELSSLRSEDTAVYYCAKESGRAVADRWGQGTLVTVSS VL: DIVMTQSPASLALSLGERATLYCRASHSISSWLAWYQQKPGKAPKLLIYKASTLESGVPSRFSGSGSGTEFTLTISSLQPDDFATYYCQQYKSYPWTFGQGTKLEIK | no binding
LMIV230-02 human monoclonal antibody (IgG1, kappa) (antibody, V domains shown) VH: QVQLVQSGAEVKKPGSSVKVSCKASGGTFNSYGISWVRQAPGQGLEWVGGIIPSFGTADYAQKFQGRVTFTTDTSTSTAYMEVSSLRSEDTAVYYCAGSSWSSGTYYGRSAYWGQGTLVTVSS VL: EIVMTQSPASLALSLGERATINCKSSQSVLYSSNNKNYLAWYQQKPGQPPKLLIYWASTRESGVPDRFSGSGSGTDFTLTISSLQAGDVAVYHCQQYYSTPYSFGQGTKLEIK | no binding
